As usually defined, the koff is a measure of how fast the partners let go of each other. High values mean fast dissociation, low ones slow dissociation. By kon is commonly meant the rate constant with which the complex forms. The low end stands for slower complex formation, the high end for faster complex formation. One may read the Kd as a measure of binding affinity in units of concentration. The low end stands for tighter binding, the high end for weaker binding.

For assay [1], the target named is T1, Human CD73 on cells (MDA-MB-231, Jurkat CD73 knock-in, NCI-H322) (human, UniProt P21589 27-549).
T1 construct: GPI-anchored native protein; also called native human CD73
T1 sequence: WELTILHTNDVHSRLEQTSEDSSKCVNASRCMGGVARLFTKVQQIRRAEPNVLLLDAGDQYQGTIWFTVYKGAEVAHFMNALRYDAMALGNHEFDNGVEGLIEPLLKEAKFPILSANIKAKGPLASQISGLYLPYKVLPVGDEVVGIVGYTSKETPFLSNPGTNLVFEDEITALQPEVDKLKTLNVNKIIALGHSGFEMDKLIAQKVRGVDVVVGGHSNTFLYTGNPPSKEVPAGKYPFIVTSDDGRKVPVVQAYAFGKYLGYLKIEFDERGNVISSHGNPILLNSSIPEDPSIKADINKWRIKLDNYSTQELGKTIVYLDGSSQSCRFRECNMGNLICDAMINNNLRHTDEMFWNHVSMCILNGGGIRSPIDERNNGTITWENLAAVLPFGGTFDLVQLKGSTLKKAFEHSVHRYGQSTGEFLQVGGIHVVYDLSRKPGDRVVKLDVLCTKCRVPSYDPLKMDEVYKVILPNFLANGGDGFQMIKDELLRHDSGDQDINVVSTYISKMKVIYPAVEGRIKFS
The assay is described as follows: flow cytometry, MDA-MB-231 / MDA-MB-231(CD73-shRNA). (In general: Flow cytometry measures light scatter and fluorescence of single cells or particles in a stream.)

Assay [2] addresses T2, Murine CD73 ECD (murine, UniProt Q61503 29-551, limits assumed).
T2 construct: extracellular domain; In-house recombinant ECD; also called murine CD73 extracellular domain; muCD73
T2 sequence (looked up): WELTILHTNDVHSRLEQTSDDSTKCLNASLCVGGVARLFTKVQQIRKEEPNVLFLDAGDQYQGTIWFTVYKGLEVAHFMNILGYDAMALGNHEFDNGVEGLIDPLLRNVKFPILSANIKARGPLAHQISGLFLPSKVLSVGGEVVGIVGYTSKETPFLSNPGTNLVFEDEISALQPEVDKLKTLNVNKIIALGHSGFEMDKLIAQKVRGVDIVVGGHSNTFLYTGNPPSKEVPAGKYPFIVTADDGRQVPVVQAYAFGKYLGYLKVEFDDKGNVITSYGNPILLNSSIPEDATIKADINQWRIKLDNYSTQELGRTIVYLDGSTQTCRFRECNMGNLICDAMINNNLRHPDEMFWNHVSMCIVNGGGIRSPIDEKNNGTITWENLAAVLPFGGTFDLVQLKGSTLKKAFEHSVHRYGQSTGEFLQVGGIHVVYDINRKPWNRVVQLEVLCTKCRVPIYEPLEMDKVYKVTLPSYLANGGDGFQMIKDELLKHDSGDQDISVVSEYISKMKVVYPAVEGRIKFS
The assay can be described thus: SPR (ProteOn), antibody captured by anti-human Fc, CD73 ECD in mobile phase. The source says: (§1) A ProteOn XPR36 instrument was used to characterize binding of MEDI9447 to human, murine, and cynomolgus CD73 ECD. MEDI9447 was affinity-captured using an anti-human Fc antibody. CD73 ECD was in the mobile phase. The association and dissociation of CD73 to MEDI9447 could be accurately described with the Langmuir 1: 1 model.

Assay [3] concerns the target T3, Human CD73 ECD (human, UniProt P21589 27-549).
T3 construct: Biotinylated in some assays; also called human CD73 extracellular domain; huCD73
T3 sequence: T1 sequence
The description is as above.
Text: as §1

The target of assay [4] is T4, Cynomolgus CD73 ECD (cynomolgus, UniProt A0A2K5V5U7 27-549).
T4 construct: extracellular domain; also called cyno CD73
T4 sequence: T1 sequence with M199T, T350A, V466I
Described as above.
Text: as §1

Assay [5] concerns the target T5, Cynomolgus CD73 on MK-1 cells (cynomolgus, UniProt A0A2K5V5U7 27-549).
T5 construct: whole, on cells; also called MK-1 (cyno)
T5 sequence: T1 sequence with M199T, T350A, V466I
The assay is described as follows: flow cytometry, MK-1 cells. On the procedure:
Binding of MEDI9447 to native CD73 expressed on human, murine, and cynomolgus monkey cell lines was characterized by flow cytometry. The cells were incubated with various concentrations of MEDI9447 and antibody binding was monitored with and fluorophore-labeled anti-human Fc antibody. A plot of the median fluorescence intensity as a function of the MEDI9447 concentration was fitted nonlinearly using a one-site binding isotherm model to calculate the equilibrium dissociation constant.

Assay [6] concerns the target T1, Human CD73 on cells (MDA-MB-231, Jurkat …). The assay can be described thus: cell-based or functional assay.
For assay [7], the target named is T6, Murine CD73 on cells (4T1, Jurkat mCD73 knock-in) (murine, UniProt Q61503 29-551).
T6 sequence (looked up): T2 sequence (looked up)
The assay can be described thus: cell-based or functional assay.

Substitutions are numbered along the chain they refer to. Names and notes keep the numbering of the source.

B1: MEDI9447 (antibody, human IgG1, lambda, V domains shown)
VH: EVQLLESGGGLVQPGGSLRLSCAASGFTFSSYAYSWVRQAPGKGLEWVSAISGSGGRTYYADSVKGRFTISRDNSKNTLYLQMNSLRAEDTAVYYCARLGYGRVDEWGRGTLVTVSS
VL: QSVLTQPPSASGTPGQRVTISCSGSLSNIGRNPVNWYQQLPGTAPKLLIYLDNLRLSGVPDRFSGSKSGTSASLAISGLQSEDEADYYCATWDDSHPGWTFGGGTKLTVLG
notes: Human IgG1-TM (L234F, L235E, P331S), lambda light chain; also called clone 10.3 antibody; 73combo3
As to B1, the “Mean Fluorescence Intensity Ratio (MFIR)” value in assay [1] is 3.5. Also, the figures for the koff in assay [2], in assay [3] and in assay [4] were 2.32e-06 s⁻¹, 1.06e-05 s⁻¹ and 1.76e-05 s⁻¹, respectively. The association rate constant (kon) was found to be 2.41e+06 M⁻¹ s⁻¹ in assay [2], 2.57e+06 M⁻¹ s⁻¹ in assay [3] and 2.71e+06 M⁻¹ s⁻¹ in assay [4]. Also, the Kd in assay [4] stood at 0.0065 nM; in assay [5], 0.084 nM. In assay [6], the “FabZAP internalization, EC50, MDA-MB-231” value amounted to 0.0035 nM. The “FabZAP internalization, EC50, 4T1” value in assay [7] was found to be 0.0185 nM.
